# B1: MLL5 (parent)
# chain: HDDGYMICCDKCSVWQHIDCMGID
# Variants of: B1
# Assay: protein stability index of a GFP-peptide fusion (GPS, HEK-293T) (PSI 1-6); higher = more stable
# Conditions: c terminus: a fixed tail appended
# 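Also: lentivirally expressed fusions sorted by FACS into six bins by GFP to DsRed ratio, PSI derived from sequencing read proportions per bin multiplied by bin number.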
row,Variant,protein stability index
1,HDDGYMICCDKCSVWQHIDCMGIK [D24K],2.13
2,HDDGYMICCDKCSVWQHIDCMGIA [D24A],2.17
3,HDDGYMICCDKCSVWQHIDCMGIW [D24W],1.49
4,HDDGYMICCDKCSVWQHIDCMGIE [D24E],2.46
5,HDDGYMICCDKCSVWQHIDCMGIH [D24H],2.29
6,HDDGYMICCDKCSVWQHIDCMGIY [D24Y],1.61
7,HDDGYMICCDKCSVWQHIDAMGID [C20A],2.5
8,HDDGYMICCDKCSVWQHIDVMGID [C20V],1.89
9,HDDGYMICCDKCSVWQHIDHMGID [C20H],2.12
10,HDDGYMICCDKCSVWQHIDYMGID [C20Y],1.68
11,HDDGYMICCDKCSVWQHIDIMGID [C20I],2.08
12,HDDGYMICCDKCSVWQHIDKMGID [C20K],2.06
13,HDDGYMICCDKCSVWQHIDNMGID [C20N],2.81
14,HDDGYMICCDKCSVWQHIDRMGID [C20R],1.97
15,HDDGYMICCDKCSVWQHIDTMGID [C20T],2.22
16,HDDGYMICCDKCSVWQHIDLMGID [C20L],1.86
17,HDDGYMICCDKCSVWQHIDSMGID [C20S],1.51
18,HDDGYMICCDKCSVWQHIDWMGID [C20W],2.15
19,HDDGYMICCDKCSVWQHIDGMGID [C20G],2.19
20,HDDGYMICCDKCSVWQHIDFMGID [C20F],1.28
21,HDDGYMICCDKCSVWQHIDQMGID [C20Q],2.02
22,HDDGYMICCDKCSVWQHIDMMGID [C20M],1.79
23,HDDGYMICCDKCSVWQHIDDMGID [C20D],2.58
24,HDDGYMICCDKCSVWQHIDPMGID [C20P],2.31

row,Variant,protein stability index
1,HDDGYMICCDKCSVWQHIDEMGID [C20E],2.29
2,HDDGYMICCDKCSVWQHIECMGID [D19E],2.57
3,HDDGYMICCDKCSVWQHIPCMGID [D19P],2.33
4,HDDGYMICCDKCSVWQHIMCMGID [D19M],2
5,HDDGYMICCDKCSVWQHIWCMGID [D19W],1.98
6,HDDGYMICCDKCSVWQHIKCMGID [D19K],2.52
7,HDDGYMICCDKCSVWQHILCMGID [D19L],2.14
8,HDDGYMICCDKCSVWQHITCMGID [D19T],2.33
9,HDDGYMICCDKCSVWQHIFCMGID [D19F],1.74
10,HDDGYMICCDKCSVWQHINCMGID [D19N],1.91
11,HDDGYMICCDKCSVWQHIHCMGID [D19H],2.2
12,HDDGYMICCDKCSVWQHIYCMGID [D19Y],1.72
13,HDDGYMICCDKCSVWQHISCMGID [D19S],1.78
14,HDDGYMICCDKCSVWQHIACMGID [D19A],2.04
15,HDDGYMICCDKCSVWQHIVCMGID [D19V],3.42
16,HDDGYMICCDKCSVWQHIGCMGID [D19G],2.84
17,HDDGYMICCDKCSVWQHICCMGID [D19C],2.94
18,HDDGYMICCDKCSVWQHIRCMGID [D19R],2.43
19,HDDGYMICCDKCSVWQHIICMGID [D19I],2.25
20,HDDGYMICCDKCSVWQHIQCMGID [D19Q],2.62
21,HDDGYMICCDKCSVWQHIDCWGID [M21W],2.03
22,HDDGYMICCDKCSVWQHIDCKGID [M21K],2.81
23,HDDGYMICCDKCSVWQHIDCSGID [M21S],2.41
24,HDDGYMICCDKCSVWQHIDCEGID [M21E],2.83

row,Variant,protein stability index
1,HDDGYMICCDKCSVWQHIDCGGID [M21G],2.66
2,HDDGYMICCDKCSVWQHIDCVGID [M21V],2.34
3,HDDGYMICCDKCSVWQHIDCYGID [M21Y],2.21
4,HDDGYMICCDKCSVWQHIDCLGID [M21L],2.34
5,HDDGYMICCDKCSVWQHIDCFGID [M21F],2.17
6,HDDGYMICCDKCSVWQHIDCQGID [M21Q],2.91
7,HDDGYMICCDKCSVWQHIDCTGID [M21T],2.91
8,HDDGYMICCDKCSVWQHIDCPGID [M21P],3.14
9,HDDGYMICCDKCSVWQHIDCRGID [M21R],2.85
10,HDDGYMICCDKCSVWQHIDCDGID [M21D],3.5
11,HDDGYMICCDKCSVWQHIDCHGID [M21H],2.61
12,HDDGYMICCDKCSVWQHIDCIGID [M21I],2.5
13,HDDGYMICCDKCSVWQHIDCAGID [M21A],2.94
14,HDDGYMICCDKCSVWQHIDCCGID [M21C],2.78
15,HDDGYMICCDKCSVWQHIDCNGID [M21N],2.73
16,HDDGYMICCDKCSVWQHSDCMGID [I18S],3.06
17,HDDGYMICCDKCSVWQHFDCMGID [I18F],2.35
18,HDDGYMICCDKCSVWQHGDCMGID [I18G],3.5
19,HDDGYMICCDKCSVWQHMDCMGID [I18M],3.14
20,HDDGYMICCDKCSVWQHQDCMGID [I18Q],3.42
21,HDDGYMICCDKCSVWQHCDCMGID [I18C],3.93
22,HDDGYMICCDKCSVWQHADCMGID [I18A],2.9
23,HDDGYMICCDKCSVWQHEDCMGID [I18E],3.5
24,HDDGYMICCDKCSVWQHPDCMGID [I18P],2.94

row,Variant,protein stability index
1,HDDGYMICCDKCSVWQHNDCMGID [I18N],2.52
2,HDDGYMICCDKCSVWQHTDCMGID [I18T],2.44
3,HDDGYMICCDKCSVWQHHDCMGID [I18H],3.6
4,HDDGYMICCDKCSVWQHDDCMGID [I18D],3.71
5,HDDGYMICCDKCSVWQHVDCMGID [I18V],1.99
6,HDDGYMICCDKCSVWQHKDCMGID [I18K],3.36
7,HDDGYMICCDKCSVWQHYDCMGID [I18Y],2.6
8,HDDGYMICCDKCSVWQHWDCMGID [I18W],2.38
9,HDDGYMICCDKCSVWQHLDCMGID [I18L],2.28
10,HDDGYMICCDKCSVWQHRDCMGID [I18R],3.32
11,HDDGYMICCDKCSVWQNIDCMGID [H17N],2.32
12,HDDGYMICCDKCSVWQSIDCMGID [H17S],2.48
13,HDDGYMICCDKCSVWQIIDCMGID [H17I],1.34
14,HDDGYMICCDKCSVWQTIDCMGID [H17T],1.64
15,HDDGYMICCDKCSVWQPIDCMGID [H17P],2.18
16,HDDGYMICCDKCSVWQQIDCMGID [H17Q],2.48
17,HDDGYMICCDKCSVWQLIDCMGID [H17L],1.98
18,HDDGYMICCDKCSVWQKIDCMGID [H17K],1.52
19,HDDGYMICCDKCSVWQMIDCMGID [H17M],2.82
20,HDDGYMICCDKCSVWQRIDCMGID [H17R],1.95
21,HDDGYMICCDKCSVWQVIDCMGID [H17V],2.8
22,HDDGYMICCDKCSVWQYIDCMGID [H17Y],1.63

# — the supplement of paper PMC10567573
